Measured values published in the supplement of paper PMC9732359.
± gives the uncertainty stated by the source.

Experiment: protein stability index of a GFP-peptide fusion (yeast GPS) (PSI 1-4); higher = more stable; sorted into four equal gates, so the index is relative within each strain
Method in brief: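 Tiled 17-residue yeast protein peptides were fused downstream of GFP in a plasmid that also expresses Cherry, and the pooled library was carried in yeast. Mid-log cultures in leucine-free medium were sorted into four equal gates by GFP/Cherry fluorescence ratio, and plasmids from each gate were PCR-amplified and Illumina-sequenced, with reads assigned to strains by barcodes. The protein stability index for each peptide was each gate's read frequency times its gate number, summed.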

Sequence	protein stability index (doa10∆)	protein stability index (pdr5∆)	protein stability index (san1∆)	protein stability index (ubr1∆)
NTNELKEVSSFLMGIFN [MTR3]	2.93 ± 0.067	3.06 ± 0.061	2.92 ± 0.061	3.1 ± 0.046
VGKDTPFTIYDGEAVAK [PRE5]	2.7 ± 0.075	3 ± 0.064	3.14 ± 0.088	3.15 ± 0.051
SQTQLENANAANNGAAF [MED2]	2.71 ± 0.054	2.75 ± 0.051	2.85 ± 0.053	1.74 ± 0.032
LQIHSRKMTTDDDINWQ [RPT5]	3.09 ± 0.14	3.12 ± 0.093	2.93 ± 0.12	3.06 ± 0.063
EATLLTNSNNGSSNNNT [SNF5]	3 ± 0.087	3.32 ± 0.13	3.14 ± 0.1	3.21 ± 0.065
LSRPYKALKTNINFASG [CDC53]	2.4 ± 0.049	2.61 ± 0.062	2.4 ± 0.057	2.66 ± 0.048
VKADVEKSLLPKIETNV [ISW2]	3.03 ± 0.086	3.18 ± 0.074	3.11 ± 0.062	2.92 ± 0.088
DVQARRQFVSNVRSVIR [RPP1]	2.02 ± 0.15	2.5 ± 0.12	1.65 ± 0.23	2.44 ± 0.13
QQREAVRQLYKGKKYQP [RPL35A]	3.63 ± 0.29	3.42 ± 0.14	2.94 ± 0.14	2.83 ± 0.091
FSKQCLISNAIYGKKTM [ECM29]	1.15 ± 0.098	1.95 ± 0.077	1.63 ± 0.14	1.82 ± 0.067
EPPLSYEQHIENIEPLD [PRP8]	2.44 ± 0.087	2.97 ± 0.097	2.32 ± 0.12	3.03 ± 0.27
NYTQNIDNLESYAGIST [SIR2]	2.92 ± 0.059	2.96 ± 0.09	2.87 ± 0.071	3.01 ± 0.044
YTKPYPNFEASFVHGVV [SMC2]	2.53 ± 0.15	2.32 ± 0.13	2.47 ± 0.26	2.33 ± 0.14
LKVYKVGDIVDIKANGS [RPL21A]	2.35 ± 0.054	2.14 ± 0.044	2.07 ± 0.052	2.11 ± 0.029
LATRRVLQEYRLTKQAF [RPO21]	2.99 ± 0.082	3.1 ± 0.1	3.01 ± 0.065	3.17 ± 0.056
CVAAWGVCNHAFHLHCI [HRT1]	1.69 ± 0.05	1.75 ± 0.065	1.52 ± 0.076	2.28 ± 0.045
VIYRGPEPSHIDQVMMS [RET1]	3.01 ± 0.085	3.23 ± 0.13	3.19 ± 0.067	2.77 ± 0.088
LVHDGLARGLRESTKAL [RPS12]	3.41 ± 0.091	3.52 ± 0.15	3.19 ± 0.17	2.83 ± 0.17
GKTNIALLTVLKALSHH [BRR2]	2.19 ± 0.058	1.54 ± 0.05	2.14 ± 0.069	2 ± 0.057
SNGPRAAKKRRPAAKGK [RRP6]	2.97 ± 0.12	3.2 ± 0.11	3.12 ± 0.08	3.17 ± 0.085
AAQTNATFLKLAAPQLV [RPT5]	2.62 ± 0.16	3.17 ± 0.15	2.41 ± 0.083	2.86 ± 0.11
HRCAIRSGALIKFKKCD [SSN2]	2.28 ± 0.096	2.26 ± 0.1	2.77 ± 0.054	2.49 ± 0.11
FHKQQAHFWKPVLNLDK [RPL28]	2.93 ± 0.067	3.19 ± 0.056	2.76 ± 0.057	2.93 ± 0.052
KKVKSASKKSGGDVVKF [SMC4]	3.09 ± 0.15	3.68 ± 0.15	2.89 ± 0.21	3.12 ± 0.16
NRYAYVLSSLMFANMKV [LRP1]	2.47 ± 0.064	2.25 ± 0.058	2.08 ± 0.068	3.01 ± 0.047
WGAETDELSMIMEHFSQ [RPS12]	2.93 ± 0.11	3.12 ± 0.17	3.44 ± 0.071	3.29 ± 0.12
KIDLLSGQFYFRNPTPL [RGR1]	2.67 ± 0.22	3.03 ± 0.15	3.12 ± 0.076	2.82 ± 0.074

Sequence	protein stability index (doa10∆)	protein stability index (pdr5∆)	protein stability index (san1∆)	protein stability index (ubr1∆)
QKYNQIQKQIETIQADL [SMC2]	2.68 ± 0.047	2.57 ± 0.042	2.6 ± 0.047	2.45 ± 0.031
QLYHLEQQKEELTDKLS [SMC1]	2.23 ± 0.16	3.11 ± 0.081	2.78 ± 0.15	3.14 ± 0.11
DHYESNQLVAKLLLLRI [SRB8]	2.84 ± 0.065	2.74 ± 0.085	2.84 ± 0.1	2.34 ± 0.038
KILMYQYNIPPEREVLV [RRP6]	1.78 ± 0.075	2.04 ± 0.077	1.77 ± 0.2	1.72 ± 0.087
IAATQDFITGSYLISHK [RPO31]	3.03 ± 0.083	3.14 ± 0.085	2.83 ± 0.093	3.13 ± 0.038
VPLAMGIVSVSDPQMKV [RPN1]	1.39 ± 0.041	1.63 ± 0.054	1.43 ± 0.1	1.51 ± 0.051
SPDKIGTFTADYSKPNL [SSN2]	2.81 ± 0.094	3 ± 0.066	2.65 ± 0.08	2.92 ± 0.064
EVFQLRIFVKEILEKCA [GAL11]	2.29 ± 0.12	2.11 ± 0.12	2.19 ± 0.077	2.12 ± 0.19
KIVFILDSDSENDLSFA [RRI2]	2.52 ± 0.059	2.61 ± 0.059	2.09 ± 0.12	2.59 ± 0.047
IFALCIYNSTDSNSEIL [YML103C/NUP188]	1.39 ± 0.17	2.19 ± 0.075	1.87 ± 0.14	1.95 ± 0.086
TPVQPDLSVTPQKSSSK [YAR002W/NUP60]	3.15 ± 0.04	3.15 ± 0.04	3.057 ± 0.026	3.093 ± 0.027
VYNNSKDEYLAQLDGRI [NSL1]	3.33 ± 0.073	3.26 ± 0.049	3.17 ± 0.049	3.36 ± 0.045
LPYAIAGSGSTFIYGYC [PRE3]	2.13 ± 0.14	1.42 ± 0.084	2.26 ± 0.12	2.29 ± 0.085
YLSGAIPNQEVLQYSDW [YDL116W/NUP84]	2.37 ± 0.12	1.83 ± 0.074	2.29 ± 0.051	2 ± 0.071
YGIPLEFYNEMHRPVHF [PRP8]	1.85 ± 0.074	2.04 ± 0.1	1.98 ± 0.14	2.64 ± 0.15
DEEASYKLGKVKKVQLG [RPS4A]	2.96 ± 0.1	3.1 ± 0.069	2.9 ± 0.063	2.98 ± 0.061
LREYLNLPEHIVPGTYI [RPS10A]	3.08 ± 0.078	3.08 ± 0.064	2.82 ± 0.056	2.75 ± 0.059
HFPINVNIVEKDGAKFI [RPL9A]	2.58 ± 0.069	2.57 ± 0.079	2.53 ± 0.065	2.5 ± 0.07
QSLNEMVKLIVMLCTLT [YJL039C/NUP192]	2.52 ± 0.071	2.63 ± 0.057	2.81 ± 0.11	2.27 ± 0.058
EPIYGVQYKLLSISVPS [SNU114]	2.18 ± 0.12	2.76 ± 0.18	2.02 ± 0.18	3.09 ± 0.11
FGWLLSDNSVSVRLQVT [IRR1]	1.26 ± 0.078	1.32 ± 0.095	1.19 ± 0.23	1.13 ± 0.13
DLNNAVQKRDEVKEQLG [SMC4]	2.95 ± 0.055	2.99 ± 0.056	3.15 ± 0.046	2.83 ± 0.042
NFIIWINSIDTTESSDL [GRR1]	2.46 ± 0.044	2.38 ± 0.047	2.61 ± 0.055	2.88 ± 0.037
HGIKDIPIGHVHVIHFQ [AAR2]	2.89 ± 0.06	2.86 ± 0.058	2.87 ± 0.059	2.75 ± 0.041
KFTTVLAKILARSIDVE [ECM29]	–	1.53 ± 0.2	2.94 ± 0.14	3.01 ± 0.22
RQTLAPYAVLSQFYELR [YJR042W/NUP85]	1.98 ± 0.12	2.75 ± 0.24	2.42 ± 0.16	2.35 ± 0.09
EHSQVEQTCVKLLDSGC [SRP72]	3.15 ± 0.068	3.38 ± 0.083	3.11 ± 0.085	3.34 ± 0.063
